The results in this text go back to paper PMC3925092.

In experiment [1] the target is Hcp1 (hemolysin co-regulated protein 1) of the Sci-1 T6SS of enteroaggregative E. coli, wild type (enteroaggregative E. coli 17-2). Description: SEC-MALS; SEC/MALS/UV/RI on KW803 and KW804 columns (Shodex), Tris-HCl 20 mM pH 7.5, NaCl 100 mM, 0.5 ml/min; monomers in the hexamer.
Experiment [2] shares this target. Description: SPR; BIAcore T200, 25°C; Hcp1 immobilised by amine coupling (CM5 chip in the results, HC200m Xantech chip in the methods), Hcp1 3.75-120 µM as analyte in HBS-EP; steady state, 1:1 equilibrium model; hexamer with hexamer; Hcp1WW tested in the same conditions. (Surface plasmon resonance follows binding to a sensor surface in real time, without labels.)
Experiment [3] has as its target Hcp1 N93W/S158W double mutant (Hcp1WW) (enteroaggregative E. coli 17-2). Description: SEC-MALS; MALLS-SEC-UV of Hcp1WW, data not shown; monomers in the hexamer. For orientation: Size exclusion chromatography separates by hydrodynamic size, large species first.
In experiment [4] the target is Hcp2 of enteroaggregative E. coli (second T6SS gene cluster), wild type (enteroaggregative E. coli 17-2). In words: SEC-MALS; SEC/MALS/UV/RI on KW803 and KW804 columns (Shodex), Tris-HCl 20 mM pH 7.5, NaCl 100 mM, 0.5 ml/min; monomers in the hexamer.

“Hcp1 (hemolysin co-regulated protein 1) of the Sci-1 T6SS of enteroaggregative E. coli, wild type (natural protein)” gave a stoichiometry N in experiment [1] of 6. Besides, in experiment [2], the Kd amounted to 7.2 µM. For the substance “Hcp1 N93W/S158W double mutant (Hcp1WW) (natural protein)”, in experiment [3], the stoichiometry N worked out at 6. In experiment [4], “Hcp2 of enteroaggregative E. coli (second T6SS gene cluster), wild type (natural protein)” had a stoichiometry N of 6.

A word on the stoichiometry N: it is a count of units in the complex or per binding partner. Usually Kd stands for the equilibrium constant for the complex coming apart. Read a high Kd as a looser complex.
